For assay [1], the target named is TGF-β produced by cells in the culture (mouse) (UniProt Q61315). In words: cell-based or functional assay.
Assay [2] deals with T1, murine CD25 (IL-2 receptor alpha chain) on mouse T cells (mouse, UniProt P01590 22-268).
T1 construct: whole, on cells; Endogenous CD25 on cultured mouse Tregs and Tcons; also called IL-2Rα; surface CD25
T1 sequence (looked up): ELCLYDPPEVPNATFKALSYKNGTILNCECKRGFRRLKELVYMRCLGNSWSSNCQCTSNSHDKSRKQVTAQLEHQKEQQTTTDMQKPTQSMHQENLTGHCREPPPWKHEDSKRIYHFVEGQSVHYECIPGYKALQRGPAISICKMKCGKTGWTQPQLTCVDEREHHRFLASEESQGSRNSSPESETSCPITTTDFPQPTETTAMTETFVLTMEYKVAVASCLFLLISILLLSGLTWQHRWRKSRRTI
Put plainly: flow cytometry on 2D2-FIG Tregs; loss of APC-conjugated PC61 staining. Background: Flow cytometry measures light scatter and fluorescence of single cells or particles in a stream.

Chain of TGF-β produced by cells in the culture (mouse) (Q61315 whole entry): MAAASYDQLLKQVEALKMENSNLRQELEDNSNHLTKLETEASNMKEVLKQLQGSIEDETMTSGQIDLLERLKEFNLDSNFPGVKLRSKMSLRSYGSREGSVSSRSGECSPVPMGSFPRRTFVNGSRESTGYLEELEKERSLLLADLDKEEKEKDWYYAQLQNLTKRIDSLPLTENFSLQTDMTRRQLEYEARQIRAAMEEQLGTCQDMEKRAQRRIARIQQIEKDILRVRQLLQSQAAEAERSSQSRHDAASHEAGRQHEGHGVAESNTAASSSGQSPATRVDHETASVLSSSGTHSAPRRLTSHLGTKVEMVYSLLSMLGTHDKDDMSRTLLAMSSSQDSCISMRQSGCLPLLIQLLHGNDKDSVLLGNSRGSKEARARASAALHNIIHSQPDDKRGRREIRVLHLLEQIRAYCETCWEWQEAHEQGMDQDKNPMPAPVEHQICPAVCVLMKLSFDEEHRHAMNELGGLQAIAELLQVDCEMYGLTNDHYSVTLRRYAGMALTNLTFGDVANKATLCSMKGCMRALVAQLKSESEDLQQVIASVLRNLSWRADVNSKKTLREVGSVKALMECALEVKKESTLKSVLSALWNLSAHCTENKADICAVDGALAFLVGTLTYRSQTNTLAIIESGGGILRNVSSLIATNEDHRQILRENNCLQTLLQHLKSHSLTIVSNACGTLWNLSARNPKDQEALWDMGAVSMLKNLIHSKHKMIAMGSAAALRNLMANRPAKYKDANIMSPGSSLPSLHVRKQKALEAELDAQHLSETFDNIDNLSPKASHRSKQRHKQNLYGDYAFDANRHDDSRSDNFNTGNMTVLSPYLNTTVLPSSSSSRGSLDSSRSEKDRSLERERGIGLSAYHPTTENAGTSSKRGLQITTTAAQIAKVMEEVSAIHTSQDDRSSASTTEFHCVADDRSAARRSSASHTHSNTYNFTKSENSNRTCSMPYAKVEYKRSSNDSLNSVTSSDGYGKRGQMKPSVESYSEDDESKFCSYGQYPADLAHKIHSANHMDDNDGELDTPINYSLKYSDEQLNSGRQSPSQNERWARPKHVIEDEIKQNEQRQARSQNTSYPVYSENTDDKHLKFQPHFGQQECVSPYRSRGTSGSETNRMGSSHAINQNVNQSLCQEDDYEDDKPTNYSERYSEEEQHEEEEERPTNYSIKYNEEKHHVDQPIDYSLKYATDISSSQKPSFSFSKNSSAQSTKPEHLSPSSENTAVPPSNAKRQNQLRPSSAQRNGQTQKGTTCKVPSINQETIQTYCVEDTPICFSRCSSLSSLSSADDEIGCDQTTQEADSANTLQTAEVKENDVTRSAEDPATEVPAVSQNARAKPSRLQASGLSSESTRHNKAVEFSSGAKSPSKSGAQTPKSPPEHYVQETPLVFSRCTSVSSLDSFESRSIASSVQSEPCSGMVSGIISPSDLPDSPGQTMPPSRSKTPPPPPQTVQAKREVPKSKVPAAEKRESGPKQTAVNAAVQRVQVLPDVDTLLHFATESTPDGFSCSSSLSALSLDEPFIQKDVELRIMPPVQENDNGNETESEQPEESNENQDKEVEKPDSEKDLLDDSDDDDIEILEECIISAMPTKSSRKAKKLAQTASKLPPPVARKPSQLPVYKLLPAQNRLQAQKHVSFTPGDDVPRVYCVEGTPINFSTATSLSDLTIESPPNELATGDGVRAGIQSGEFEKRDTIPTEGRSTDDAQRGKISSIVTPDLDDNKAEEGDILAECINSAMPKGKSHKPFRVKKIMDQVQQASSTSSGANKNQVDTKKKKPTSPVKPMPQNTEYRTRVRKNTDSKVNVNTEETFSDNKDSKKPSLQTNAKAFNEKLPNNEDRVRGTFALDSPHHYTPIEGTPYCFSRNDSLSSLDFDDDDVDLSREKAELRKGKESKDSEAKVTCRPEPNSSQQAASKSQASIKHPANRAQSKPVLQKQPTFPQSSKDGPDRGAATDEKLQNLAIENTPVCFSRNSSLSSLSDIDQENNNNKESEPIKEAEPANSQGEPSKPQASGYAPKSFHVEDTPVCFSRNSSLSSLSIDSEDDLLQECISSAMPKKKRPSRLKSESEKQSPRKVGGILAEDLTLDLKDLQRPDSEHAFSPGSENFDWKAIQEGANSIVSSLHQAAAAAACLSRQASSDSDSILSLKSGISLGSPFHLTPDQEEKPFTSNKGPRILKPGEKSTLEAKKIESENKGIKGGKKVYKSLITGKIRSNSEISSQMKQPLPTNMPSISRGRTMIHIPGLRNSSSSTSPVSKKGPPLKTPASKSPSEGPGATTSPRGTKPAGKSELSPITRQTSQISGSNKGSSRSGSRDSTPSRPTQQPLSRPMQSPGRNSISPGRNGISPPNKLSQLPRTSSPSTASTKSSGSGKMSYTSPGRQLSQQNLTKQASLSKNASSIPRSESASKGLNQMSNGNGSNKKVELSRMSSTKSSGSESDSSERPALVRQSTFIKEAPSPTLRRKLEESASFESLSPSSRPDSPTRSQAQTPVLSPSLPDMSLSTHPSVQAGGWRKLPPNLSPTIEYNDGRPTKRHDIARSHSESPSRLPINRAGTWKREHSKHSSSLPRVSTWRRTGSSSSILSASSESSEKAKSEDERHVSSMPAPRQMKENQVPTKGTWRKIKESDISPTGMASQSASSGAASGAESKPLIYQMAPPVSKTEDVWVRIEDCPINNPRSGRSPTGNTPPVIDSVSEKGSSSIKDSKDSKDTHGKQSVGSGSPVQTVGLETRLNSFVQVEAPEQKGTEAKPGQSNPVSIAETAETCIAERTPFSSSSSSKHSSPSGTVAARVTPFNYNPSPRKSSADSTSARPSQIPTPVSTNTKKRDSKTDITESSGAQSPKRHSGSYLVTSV

Molecule “1D11.16.8 anti-mouse-TGF-β1/2/3 monoclonal antibody (mouse IgG1)” came in with an FOXP3+ Treg percentages during secondary activation (1D11 at 50 µg/ml) in assay [1] of less than 50%.

B1: PC61 anti-CD25 monoclonal antibody (PC61-5.3 hybridoma, rat IgG1, lambda) (antibody, V domains shown)
VH: QVQLQQSGAELVRPGTSVKLSCKVSGDTITAYYIHFVKQRPGQGLEWIGRIDPEDDSTEYAEKFKNKATITANTSSNTAHLKYSRLTSEDTATYFCTTDNMGATEFVYWGQGTLVTVSS
VL: QVVLTQPKSVSASLESTVKLSCKLNSGNIGSYYMHWYQQREGRSPTNLIYRDDKRPDGAPDRFSGSIDISSNSAFLTINNVQTEDEAMYFCHSYDGRMYIFGGGTKLTVLG
notes: also called PC61 mAb; anti-CD25 PC61 mAb
In the case of B1, the binding result in assay [2] is on record as “binds”.

Source of the values: patent publication US20220380728A1 (EAST CAROLINA UNIVERSITY, published 2022).
